{
  "source": "the RNAGym collection of RNA variant scans (doi:10.1093/nar/gkz1192)",
  "parents": {"B1": {"name": "CPEB3 Ribozyme (parent)", "chain": "UAACAGGGGGCCACAGCAGAAGCGUUCACGUCGCAGCCCCUGUCAGAUUCUGGUGAAUCUGCGAAUUCUGCUGUAUAUCUC"}},
  "data": [
    {"variants_of": "B1", "experiment": "self-cleavage, relative activity (ratio to wild type); higher = more cleavage; in vitro, sequencing", "summary_of_the_method": "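Barcoded CPEB3 ribozyme mutants, produced by rounds of error-prone PCR, self-cleaved while being transcribed with T7 RNA polymerase for 5 hours at 37°C and during a subsequent 15 min DNase I step before EDTA was added. Sequencing of template-switched cDNA on Illumina gave cleaved and total reads, and DNA sequencing assigned barcodes to variants. Each variant's relative activity is its cleaved/total read fraction divided by the unmutated ribozyme's fraction, averaged across three batches. A variant needed a minimum of 5 reads.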", "values": [
      {"variant": "A3U G22A", "self-cleavage": 0.45},
      {"variant": "A3U G22U", "self-cleavage": 0.32},
      {"variant": "C4A A47G", "self-cleavage": 1.12},
      {"variant": "C4G A21G", "self-cleavage": 1.14},
      {"variant": "C4U A45G", "self-cleavage": 1.25},
      {"variant": "C4U A45U", "self-cleavage": 0.47},
      {"variant": "C4U C50A", "self-cleavage": 1.17},
      {"variant": "A3U U66C", "self-cleavage": 0.55},
      {"variant": "C4G U67C", "self-cleavage": 0.29},
      {"variant": "A3U U74A", "self-cleavage": 1.26},
      {"variant": "C4A G8A", "self-cleavage": 0.47},
      {"variant": "C4A U80C", "self-cleavage": 1.11},
      {"variant": "C4A U80A", "self-cleavage": 1.06},
      {"variant": "C4U A65G", "self-cleavage": 0.43},
      {"variant": "C4A U60A", "self-cleavage": 0.89},
      {"variant": "A3U G46A", "self-cleavage": 0.54},
      {"variant": "C4A U74C", "self-cleavage": 1.22},
      {"variant": "A3U G42U", "self-cleavage": 0.16},
      {"variant": "A3U G63U", "self-cleavage": 1.19},
      {"variant": "A3U G63A", "self-cleavage": 1.03},
      {"variant": "C4A U78C", "self-cleavage": 0.74},
      {"variant": "A3U G33U", "self-cleavage": 0.42},
      {"variant": "A3U G33A", "self-cleavage": 0.16},
      {"variant": "A3U U58A", "self-cleavage": 0.39},
      {"variant": "A3U U58C", "self-cleavage": 0.54},
      {"variant": "A3U U51A", "self-cleavage": 1.02},
      {"variant": "A3U U51C", "self-cleavage": 1.15},
      {"variant": "A3U U51G", "self-cleavage": 1.08},
      {"variant": "A3U U31G", "self-cleavage": 1.01},
      {"variant": "A3U U31A", "self-cleavage": 0.55},
      {"variant": "A3U U31C", "self-cleavage": 1.01},
      {"variant": "C4U G7C", "self-cleavage": 0.13},
      {"variant": "A3U U41C", "self-cleavage": 1.05},
      {"variant": "A3U U41A", "self-cleavage": 0.31},
      {"variant": "C4A U67A", "self-cleavage": 1},
      {"variant": "C4A U67C", "self-cleavage": 0.44},
      {"variant": "C4U A18U", "self-cleavage": 0.73},
      {"variant": "C4A C62U", "self-cleavage": 0.23},
      {"variant": "C4A G30A", "self-cleavage": 0.39},
      {"variant": "A3U G70U", "self-cleavage": 0.19},
      {"variant": "A3U G70A", "self-cleavage": 0.63},
      {"variant": "C4U A28U", "self-cleavage": 1.08},
      {"variant": "C4U A28G", "self-cleavage": 1.03},
      {"variant": "C4G A77G", "self-cleavage": 1.19},
      {"variant": "C4A U51C", "self-cleavage": 1.14},
      {"variant": "C4G G55U", "self-cleavage": 1.12},
      {"variant": "C4U C27U", "self-cleavage": 0.56},
      {"variant": "C4G U60C", "self-cleavage": 0.68},
      {"variant": "A3U U76G", "self-cleavage": 1.13},
      {"variant": "C4U C17U", "self-cleavage": 1.05},
      {"variant": "C4U A20G", "self-cleavage": 0.81},
      {"variant": "C4U A20C", "self-cleavage": 0.21},
      {"variant": "C4U A20U", "self-cleavage": 0.42},
      {"variant": "C4G U49A", "self-cleavage": 0.65},
      {"variant": "A3U G16A", "self-cleavage": 0.43},
      {"variant": "A3U C71U", "self-cleavage": 0.83},
      {"variant": "A3U G36A", "self-cleavage": 0.32},
      {"variant": "C4U C23G", "self-cleavage": 0.53},
      {"variant": "A3U C79U", "self-cleavage": 1.21},
      {"variant": "C4G U31C", "self-cleavage": 1.17},
      {"variant": "A3U U67A", "self-cleavage": 0.75},
      {"variant": "A3U U67C", "self-cleavage": 0.3},
      {"variant": "C4G U26C", "self-cleavage": 0.96},
      {"variant": "C4G U26A", "self-cleavage": 1.19},
      {"variant": "C4G G8C", "self-cleavage": 0.66},
      {"variant": "C4G A13C", "self-cleavage": 1.17},
      {"variant": "C4G A13G", "self-cleavage": 1.08},
      {"variant": "C4A G16U", "self-cleavage": 0.62},
      {"variant": "A3U G8A", "self-cleavage": 0.2},
      {"variant": "C4A A18U", "self-cleavage": 0.45},
      {"variant": "C4A A18G", "self-cleavage": 1.04},
      {"variant": "C4A A45U", "self-cleavage": 1.16},
      {"variant": "C4A G10A", "self-cleavage": 0.59},
      {"variant": "C4A U72C", "self-cleavage": 1.22},
      {"variant": "C4A U72A", "self-cleavage": 0.42},
      {"variant": "A3U U80C", "self-cleavage": 0.85},
      {"variant": "A3U U80A", "self-cleavage": 1.23},
      {"variant": "C4A C79G", "self-cleavage": 1.25},
      {"variant": "C4A C44U", "self-cleavage": 0.33},
      {"variant": "A3U C59U", "self-cleavage": 0.66},
      {"variant": "A3U U54A", "self-cleavage": 1.19},
      {"variant": "A3U U54C", "self-cleavage": 1.04},
      {"variant": "A3U U25A", "self-cleavage": 0.29},
      {"variant": "A3U U25C", "self-cleavage": 0.34},
      {"variant": "A3U G10A", "self-cleavage": 0.1},
      {"variant": "A3U G10U", "self-cleavage": 0.19},
      {"variant": "C4U G8A", "self-cleavage": 0.28},
      {"variant": "C4A A21G", "self-cleavage": 0.92},
      {"variant": "C4U C38A", "self-cleavage": 0.54},
      {"variant": "C4U A57G", "self-cleavage": 1.05},
      {"variant": "C4U A64U", "self-cleavage": 0.7},
      {"variant": "C4G U72A", "self-cleavage": 1.13},
      {"variant": "A3U U60C", "self-cleavage": 0.59},
      {"variant": "A3U U60A", "self-cleavage": 0.19},
      {"variant": "C4U A21G", "self-cleavage": 0.89},
      {"variant": "C4A U31A", "self-cleavage": 0.88},
      {"variant": "C4U A35U", "self-cleavage": 0.81},
      {"variant": "C4U A35G", "self-cleavage": 1.29},
      {"variant": "A3U U69C", "self-cleavage": 0.69},
      {"variant": "A3U U69A", "self-cleavage": 0.54},
      {"variant": "A3U G19U", "self-cleavage": 0.4},
      {"variant": "C4G U41A", "self-cleavage": 0.5},
      {"variant": "C4G U41C", "self-cleavage": 1.1},
      {"variant": "C4A U25C", "self-cleavage": 0.52},
      {"variant": "C4A U26C", "self-cleavage": 1.21},
      {"variant": "A3U U49A", "self-cleavage": 0.47},
      {"variant": "A3U U49C", "self-cleavage": 0.51},
      {"variant": "C4G G36U", "self-cleavage": 0.28},
      {"variant": "C4U A56G", "self-cleavage": 1.06},
      {"variant": "C4U A15U", "self-cleavage": 0.86},
      {"variant": "C4U A15G", "self-cleavage": 1.17},
      {"variant": "C4A U76A", "self-cleavage": 1.2},
      {"variant": "C4G A57G", "self-cleavage": 0.98},
      {"variant": "C4G U69C", "self-cleavage": 0.95},
      {"variant": "A3U U72A", "self-cleavage": 1},
      {"variant": "A3U U72G", "self-cleavage": 1.09},
      {"variant": "A3U U72C", "self-cleavage": 1.12},
      {"variant": "C4U A75G", "self-cleavage": 1.15},
      {"variant": "A3U U48A", "self-cleavage": 0.56},
      {"variant": "A3U U48C", "self-cleavage": 0.63},
      {"variant": "C4U C29U", "self-cleavage": 0.72},
      {"variant": "C4A U66C", "self-cleavage": 0.24},
      {"variant": "A3U U43G", "self-cleavage": 0.34},
      {"variant": "A3U U43C", "self-cleavage": 0.77},
      {"variant": "A3U U43A", "self-cleavage": 0.77},
      {"variant": "C4A", "self-cleavage": 1.22},
      {"variant": "C4G", "self-cleavage": 1.1},
      {"variant": "C4U", "self-cleavage": 1.17},
      {"variant": "C4A G33U", "self-cleavage": 0.12},
      {"variant": "A3U C68G", "self-cleavage": 0.44},
      {"variant": "A3U C68A", "self-cleavage": 0.44},
      {"variant": "A3U U26A", "self-cleavage": 1.03},
      {"variant": "A3U U26C", "self-cleavage": 0.64},
      {"variant": "A3U U26G", "self-cleavage": 0.23},
      {"variant": "C4G U66A", "self-cleavage": 0.79},
      {"variant": "C4A U41A", "self-cleavage": 0.41},
      {"variant": "C4U C40U", "self-cleavage": 0.86},
      {"variant": "A3U G7U", "self-cleavage": 0.13},
      {"variant": "A3U G7A", "self-cleavage": 0.47},
      {"variant": "A3U G7C", "self-cleavage": 0.35},
      {"variant": "C4U C12U", "self-cleavage": 1.21},
      {"variant": "A3U U78C", "self-cleavage": 0.9},
      {"variant": "A3U U78G", "self-cleavage": 1.2},
      {"variant": "C4U A47G", "self-cleavage": 1.15},
      {"variant": "C4A U69A", "self-cleavage": 0.68},
      {"variant": "A3U G73C", "self-cleavage": 1.25},
      {"variant": "C4A U58C", "self-cleavage": 0.76},
      {"variant": "C4A U58A", "self-cleavage": 0.67},
      {"variant": "C4A G6A", "self-cleavage": 0.43},
      {"variant": "C4A C59A", "self-cleavage": 0.33},
      {"variant": "C4U A13C", "self-cleavage": 1.21},
      {"variant": "A3U G61A", "self-cleavage": 1.01},
      {"variant": "A3U G61C", "self-cleavage": 0.5},
      {"variant": "C4A A20G", "self-cleavage": 1.11},
      {"variant": "A3U C81G", "self-cleavage": 1.21},
      {"variant": "C4U A5G", "self-cleavage": 0.84},
      {"variant": "A3U G6U", "self-cleavage": 0.59},
      {"variant": "A3U G6A", "self-cleavage": 0.62},
      {"variant": "C4G U51C", "self-cleavage": 1.12},
      {"variant": "C4G U51A", "self-cleavage": 1.15},
      {"variant": "C4A G22C", "self-cleavage": 0.25},
      {"variant": "C4U C37G", "self-cleavage": 0.9},
      {"variant": "C4U C37U", "self-cleavage": 0.91},
      {"variant": "C4A G9A", "self-cleavage": 0.64},
      {"variant": "A3U G52A", "self-cleavage": 1.1},
      {"variant": "A3U G9C", "self-cleavage": 0.25},
      {"variant": "A3U G9A", "self-cleavage": 0.58}
    ]}
  ]
}
